Assay results from patent US20180086841A1 (Merck Sharp & Dohme, published 2018).

Legend:
G89A [1] = target: T1, G89A; assay: flow cytometry on CHO-K1 transfectants;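 further: Anti-hCD27 antibodies tested on transiently transfected CHO-K1 cells bearing hCD27 alanine mutants, 30 min at 4 °C primary incubation, FITC readout excluding debris, dead cells and doublets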
T1 construct: also called hCD27 G89A
T1 receptor chain: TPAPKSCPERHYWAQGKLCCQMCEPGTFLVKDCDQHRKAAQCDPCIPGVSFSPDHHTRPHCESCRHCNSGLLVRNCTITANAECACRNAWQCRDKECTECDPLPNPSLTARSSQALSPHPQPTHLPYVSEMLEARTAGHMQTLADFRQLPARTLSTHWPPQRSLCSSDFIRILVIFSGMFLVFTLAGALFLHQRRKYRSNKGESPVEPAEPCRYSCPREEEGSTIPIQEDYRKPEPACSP
Protocol: (§1) The hCD27 variants that were tested are listed. Amino acids correspond to the UniProt P26842-1 sequence. Amino acids 1-20 constitute the signal peptide. Binding is expressed as the geometric mean of the FITC signal, relative to antibody binding to hCD27, which was set at 100%.
(§2) The ability of several anti-hCD27 antibodies to bind to a series of hCD27 alanine mutants was determined using CHO-K1 cells, transiently transfected pCI-neo empty vector, pCI-neo.hCD27 and several pCI-neo.CD27Ala mutant constructs.
(§3) Detached cells were transferred to 96 wells round-bottomed well plates at approximately 1.2×10⁵ cells/well. After spinning down the cells, discarding the supernatants and re-suspending the cells in the residual volume, the primary antibodies were added and incubated for 30 minutes at 4° C. Cells were washed three times with DPBS/BSA 1%, followed by centrifugation, discarding of the supernatants and re-suspension in the residual volume. […] After washing once, antibody binding was detected using the HTS plate reader (FACS Canto II) and FlowJo software for data analysis. Debris, dead cells and doublets were excluded from the analysis. Binding was expressed as the geometric mean of the FITC signal, relative to antibody binding to hCD27, which was set at 100%.

K17A = target: T2, K17A; assay: flow cytometry on CHO-K1 transfectants;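 further: Anti-hCD27 antibodies tested on transiently transfected CHO-K1 cells bearing hCD27 alanine mutants, 30 min at 4 °C primary incubation, FITC readout excluding debris, dead cells and doublets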
T2 construct: also called hCD27 K17A
T2 receptor chain: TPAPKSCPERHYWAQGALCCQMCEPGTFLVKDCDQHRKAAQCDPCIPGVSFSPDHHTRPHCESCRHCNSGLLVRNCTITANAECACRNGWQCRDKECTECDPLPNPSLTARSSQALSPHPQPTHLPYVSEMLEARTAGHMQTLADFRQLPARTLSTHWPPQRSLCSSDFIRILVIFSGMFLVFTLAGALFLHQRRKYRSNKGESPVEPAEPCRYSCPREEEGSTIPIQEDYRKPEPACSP
Protocol: as §1, §2, §3

D32A = target: T3, D32A; assay: flow cytometry on CHO-K1 transfectants;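 further: Anti-hCD27 antibodies tested on transiently transfected CHO-K1 cells bearing hCD27 alanine mutants, 30 min at 4 °C primary incubation, FITC readout excluding debris, dead cells and doublets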
T3 construct: also called hCD27 D32A
T3 receptor chain: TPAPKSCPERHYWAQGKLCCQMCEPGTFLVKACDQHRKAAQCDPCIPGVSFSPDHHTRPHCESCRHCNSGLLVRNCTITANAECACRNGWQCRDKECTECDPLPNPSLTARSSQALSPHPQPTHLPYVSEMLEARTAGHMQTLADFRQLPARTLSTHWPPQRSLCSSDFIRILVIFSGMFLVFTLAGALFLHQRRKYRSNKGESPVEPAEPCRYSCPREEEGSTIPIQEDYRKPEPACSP
Protocol: as §1, §2, §3

G16A [2] = target: T4, G16A; assay: flow cytometry on CHO-K1 transfectants;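 further: Anti-hCD27 antibodies tested on transiently transfected CHO-K1 cells bearing hCD27 alanine mutants, 30 min at 4 °C primary incubation, FITC readout excluding debris, dead cells and doublets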
T4 construct: also called hCD27 G16A
T4 receptor chain: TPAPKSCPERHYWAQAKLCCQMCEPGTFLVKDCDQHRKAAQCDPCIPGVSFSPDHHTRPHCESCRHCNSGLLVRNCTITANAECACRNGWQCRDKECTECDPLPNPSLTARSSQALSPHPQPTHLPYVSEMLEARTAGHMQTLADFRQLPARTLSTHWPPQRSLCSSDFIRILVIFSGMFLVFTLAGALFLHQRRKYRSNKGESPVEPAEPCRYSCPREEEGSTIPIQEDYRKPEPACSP
Protocol: as §1, §2, §3

H60A = target: T5, H60A; assay: flow cytometry on CHO-K1 transfectants, right sub-column
T5 construct: also called hCD27 H60A
T5 receptor chain: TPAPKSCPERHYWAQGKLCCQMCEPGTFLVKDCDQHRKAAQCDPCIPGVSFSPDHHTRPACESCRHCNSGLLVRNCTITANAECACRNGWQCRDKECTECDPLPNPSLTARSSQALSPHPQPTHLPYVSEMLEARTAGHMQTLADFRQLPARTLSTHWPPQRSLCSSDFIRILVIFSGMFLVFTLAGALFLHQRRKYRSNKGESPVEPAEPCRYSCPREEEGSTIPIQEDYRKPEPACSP
Protocol: as §1, §2, §3

W90A = target: T6, W90A; assay: as above
T6 construct: also called hCD27 W90A
T6 receptor chain: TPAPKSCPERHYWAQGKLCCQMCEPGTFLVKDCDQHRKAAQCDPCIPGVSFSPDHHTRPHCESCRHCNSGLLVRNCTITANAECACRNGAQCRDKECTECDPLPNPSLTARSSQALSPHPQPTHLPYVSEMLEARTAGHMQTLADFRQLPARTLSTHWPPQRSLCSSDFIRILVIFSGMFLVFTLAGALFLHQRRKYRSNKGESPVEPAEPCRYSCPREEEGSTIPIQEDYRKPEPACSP
Protocol: as §1, §2, §3

G89A [3] = target: T1, G89A; assay: as above
Protocol: as §1, §2, §3

P44A = target: T7, P44A; assay: as above
T7 construct: also called hCD27 P44A
T7 receptor chain: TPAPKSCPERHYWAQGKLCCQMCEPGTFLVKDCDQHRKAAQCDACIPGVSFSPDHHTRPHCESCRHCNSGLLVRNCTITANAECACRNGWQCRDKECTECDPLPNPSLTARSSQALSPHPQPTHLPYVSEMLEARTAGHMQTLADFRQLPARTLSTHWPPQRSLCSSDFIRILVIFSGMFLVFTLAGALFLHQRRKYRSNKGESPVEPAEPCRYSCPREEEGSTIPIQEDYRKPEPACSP
Protocol: as §1, §2, §3

E9A = target: T8, E9A; assay: as above
T8 construct: also called hCD27 E9A
T8 receptor chain: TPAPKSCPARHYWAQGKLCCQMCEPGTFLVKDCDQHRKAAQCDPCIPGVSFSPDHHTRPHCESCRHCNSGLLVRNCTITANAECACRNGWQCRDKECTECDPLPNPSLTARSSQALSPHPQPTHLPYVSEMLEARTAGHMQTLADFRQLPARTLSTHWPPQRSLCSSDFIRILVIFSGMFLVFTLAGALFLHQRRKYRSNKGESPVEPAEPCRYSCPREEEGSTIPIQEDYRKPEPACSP
Protocol: as §1, §2, §3

R10A = target: T9, R10A; assay: as above
T9 construct: also called hCD27 R10A
T9 receptor chain: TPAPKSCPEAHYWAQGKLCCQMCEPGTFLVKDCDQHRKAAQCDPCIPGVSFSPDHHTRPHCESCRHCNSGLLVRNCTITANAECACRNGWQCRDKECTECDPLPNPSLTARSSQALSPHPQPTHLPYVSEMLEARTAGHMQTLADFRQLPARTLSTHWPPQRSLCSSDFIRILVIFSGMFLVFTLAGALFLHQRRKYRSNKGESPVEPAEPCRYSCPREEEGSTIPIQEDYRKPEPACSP
Protocol: as §1, §2, §3

G16A [4] = target: T4, G16A; assay: as above
Protocol: as §1, §2, §3

R87A = target: T10, R87A; assay: as above
T10 construct: also called hCD27 R87A
T10 receptor chain: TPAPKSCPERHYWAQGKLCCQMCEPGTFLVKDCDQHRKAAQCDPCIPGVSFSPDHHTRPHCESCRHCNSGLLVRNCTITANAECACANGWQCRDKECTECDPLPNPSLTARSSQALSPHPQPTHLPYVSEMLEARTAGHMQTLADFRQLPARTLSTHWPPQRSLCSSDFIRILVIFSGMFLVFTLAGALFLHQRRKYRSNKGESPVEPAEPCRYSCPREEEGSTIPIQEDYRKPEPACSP
Protocol: as §1, §2, §3

| Binder | binding, WT hCD27 = 100 (GM FITC) (G89A [1]) [%] | binding, WT hCD27 = 100 (GM FITC) (K17A) [%] | binding, WT hCD27 = 100 (GM FITC) (D32A) [%] | binding, WT hCD27 = 100 (GM FITC) (G16A [2]) [%] | binding, WT hCD27 = 100 (GM FITC) (H60A) [%] | binding, WT hCD27 = 100 (GM FITC) (W90A) [%] | binding, WT hCD27 = 100 (GM FITC) (G89A [3]) [%] | binding, WT hCD27 = 100 (GM FITC) (P44A) [%] | binding, WT hCD27 = 100 (GM FITC) (E9A) [%] | binding, WT hCD27 = 100 (GM FITC) (R10A) [%] | binding, WT hCD27 = 100 (GM FITC) (G16A [4]) [%] | binding, WT hCD27 = 100 (GM FITC) (R87A) [%] |
| --- | --- | --- | --- | --- | --- | --- | --- | --- | --- | --- | --- | --- |
| hCD27.15-6B (antibody, human IgG4 S228P, kappa, V domains shown, also called hCD27.15 (humanized 6B); humanized hCD27.15 (human IgG4, Clone 6B)) VH: QVQLVQSGAEVKKPGASVKVSCKASGFIIKATYMHWVRQAPGQRLEWMGRIDPANGETKYDPKFQVRVTITADTSASTAYMELSSLRSEDTAVYYCARYAWYFDVWGQGTLVTVSS VL: DIQMTQSPSSLSASVGDRVTITCRASENIYSFLAWYQQKPGKAPKLLIYHAKTLAEGVTSRFSGSGSGTDFTLTISSLQPEDSATYYCQHYYGSPLTFGQGTRLEIKR | 97.4 | 120 | 50.6 | 141 |  |  |  |  |  |  |  |  |
| hCD27.131A (mouse parental 131A) (antibody, mouse IgG1, V domains shown, Mouse IgG1 antibody; also called mouse hCD27.131A) VH: QIQLVQSGPELKKPGETVKISCKASGYTFTNYGMNWVKQAPGKGLKWMGWINTNTGEPTYAEEFKGRFAFSLETSATTAYLQINNLKNEDTATYFCAREGDAMDYWGQGTSVTVSS VL: QIVLTQSPAIMSASPGEKVTMTCSASSSVSYMHWYQQKSGTSPKRWIYDTSKLASGVPARFSGSGSGTSYSLTISSMEAEDAATYYCQQWNSYPFTFGSGTKLEIK |  |  |  |  | 129 | 102 | 82.9 | 91 | 132 | 108 | 108 | 111 |
